Test results: patent publication US20200223889A1 (Novo Nordisk, published 2020)
Positions of bridges follow the written chain, without caps; N, C: chain ends. Non-standard residues stand in square brackets, D forms with d. Cit = NC(=O)NCCC[C@H](N)C(=O)O; Api = NC1(C(=O)O)CCNCC1

Columns and labels:
[1] = biological target: T1, human melanocortin 4 receptor (human, UniProt P32245 1-332); test: competition with 125-NDP-α-MSH, BHK human MC4R membranes
T1 construct: whole, on cells; cAMP assay on whole BHK cells; also called MC4R; human MC4 receptor
T1 sequence (P32245 whole entry): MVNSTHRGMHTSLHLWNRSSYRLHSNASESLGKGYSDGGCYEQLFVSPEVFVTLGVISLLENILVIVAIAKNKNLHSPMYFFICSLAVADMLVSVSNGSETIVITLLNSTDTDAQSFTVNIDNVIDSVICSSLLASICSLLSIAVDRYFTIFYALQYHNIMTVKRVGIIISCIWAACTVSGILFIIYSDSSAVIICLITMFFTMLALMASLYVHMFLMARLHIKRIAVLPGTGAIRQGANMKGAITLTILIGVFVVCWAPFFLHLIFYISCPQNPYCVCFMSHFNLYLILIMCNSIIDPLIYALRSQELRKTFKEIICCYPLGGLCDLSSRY
Method: In order to assess the binding affinity of the selected compounds for the human MC4R competitive binding assays was performed with radiolabeled NDP-alpha MSH (¹²⁵NDP-α-MSH).
The assay was performed in 96-well filterplates (Unifilter) using BHK cells stably expressing the human MC4 receptor.
The BHK cell membranes were prepared from frozen or fresh cells that were homogenized in 20 mM HEPES pH 7.1, 5 mM MgCl₂, 1 mg/ml bacitracin (buffer 1) and centrifuged at 15000 rpm at 4° C., 10 min in a Sorvall RC 5B plus, SS-34 rotor. The supernatant was discarded, and the pellets were re-suspended in buffer 1, homogenized and centrifuged two more times. The final pellets were re-suspended in buffer 1 and the protein concentration was measured and adjusted with buffer 1 to 5 mg/ml and the membrane preparation was kept at −80° C. until assay. The assay was run on a dilution of this cell membrane suspension without any further preparation. The suspension was diluted to give maximally 10% specific binding, i.e. to approx. 50-100 fold dilution, optimized after each membrane preparation. The assay was performed in a total volume of 200 μl: 50 μl of cell suspension, 50 μl of ¹²⁵NDP-α-MSH (apx. […] in final concentration), 50 μl of test compound and 50 μl binding buffer were mixed and incubated for 2 h at 25° C. (binding buffer: 25 mM HEPES, pH 7.0, 1 mM CaCl₂), 1 mM MgSO₄, 1 mM EGTA, 0.005% Tween™ 20 and 0.1% HSA or, alternatively, 0.1% ovalbumin (Sigma; catalogue No. A-5503)). Test compounds were dissolved in 100% DMSO and diluted in binding buffer in a dose range from 1 μM to 0.001 nM. Radiolabelled ligand and membranes were diluted in binding buffer. The incubation was stopped by dilution with 8×100 μl ice-cold 0.9% NaCl. The radioactivity retained on the filters was counted using a Packard Topcounter. The data were analysed by non-linear regression analysis of binding curves, using the Windows™ program GraphPad™ Prism (GraphPad Software, USA).

[2] = biological target: T1, human melanocortin 4 receptor; test: cell-based or functional assay
[3] = biological target: human melanocortin 1 receptor (human, UniProt Q01726 1-317); test: cell-based or functional assay
Sequence of human melanocortin 1 receptor (Q01726 whole entry): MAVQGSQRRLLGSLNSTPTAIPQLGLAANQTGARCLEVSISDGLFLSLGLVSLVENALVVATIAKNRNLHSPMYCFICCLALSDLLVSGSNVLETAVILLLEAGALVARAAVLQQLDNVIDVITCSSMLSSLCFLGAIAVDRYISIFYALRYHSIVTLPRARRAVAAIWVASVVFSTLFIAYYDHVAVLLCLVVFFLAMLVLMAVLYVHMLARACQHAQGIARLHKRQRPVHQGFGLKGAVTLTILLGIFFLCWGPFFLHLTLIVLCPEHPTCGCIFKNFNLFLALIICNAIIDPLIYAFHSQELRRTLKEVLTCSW

Binder | Ki [1] | MC4R cAMP EC50 [2] | MC1R cAMP EC50 [3]
cyclo(CH[dF]RWECH[dF]RWE) (disulfide 1-7; SMILES N=C(N)NCCC[C@@H]1NC(=O)[C@@H](Cc2ccccc2)NC(=O)[C@H](Cc2c[nH]cn2)NC(=O)[C@@H]2CSSC[C@H](NC(=O)[C@H](CCC(=O)O)NC(=O)[C@H](Cc3c[nH]c4ccccc34)NC1=O)C(=O)N[C@@H](Cc1c[nH]cn1)C(=O)N[C@H](Cc1ccccc1)C(=O)N[C@@H](CCCNC(=N)N)C(=O)N[C@@H](Cc1c[nH]c3ccccc13)C(=O)N[C@@H](CCC(=O)O)C(=O)N2, also called c[c[Cys-His-D-Phe-Arg-Trp-Glu-Cys]-His-D-Phe-Arg-Trp-Glu]) [Chem. 1] | 47.9 nM | 14.9 nM | 198 nM
cyclo(CH[dF]RWACH[dF]RWA) (disulfide 1-7; SMILES C[C@@H]1NC(=O)[C@H](Cc2c[nH]c3ccccc23)NC(=O)[C@H](CCCNC(=N)N)NC(=O)[C@@H](Cc2ccccc2)NC(=O)[C@H](Cc2c[nH]cn2)NC(=O)[C@@H]2CSSC[C@H](NC1=O)C(=O)N[C@@H](Cc1c[nH]cn1)C(=O)N[C@H](Cc1ccccc1)C(=O)N[C@@H](CCCNC(=N)N)C(=O)N[C@@H](Cc1c[nH]c3ccccc13)C(=O)N[C@@H](C)C(=O)N2, also called c[c[Cys-His-D-Phe-Arg-Trp-Ala-Cys]-His-D-Phe-Arg-Trp-Ala]) [Chem. 5] | 0.99 nM | 0.21 nM | 6.47 nM
cyclo(C[Api]H[dF]HWC[Api]H[dF]HW) (disulfide 1-7; SMILES O=C1N[C@H]2CSSC[C@H](NC(=O)[C@H](Cc3c[nH]c4ccccc34)NC(=O)[C@H](Cc3c[nH]cn3)NC(=O)[C@@H](Cc3ccccc3)NC(=O)[C@H](Cc3c[nH]cn3)NC(=O)C3(CCNCC3)NC2=O)C(=O)NC2(CCNCC2)C(=O)N[C@@H](Cc2c[nH]cn2)C(=O)N[C@H](Cc2ccccc2)C(=O)N[C@@H](Cc2c[nH]cn2)C(=O)N[C@H]1Cc1c[nH]c2ccccc12, also called c[c[Cys-ACP-His-D-Phe-His-Trp-Cys]-ACP-His-D-Phe-His-Trp]) [Chem. 50] | 19.9 nM | 1.17 nM | 66.2 nM
cyclo(CEH[dF]RWCEH[dF]RW) (disulfide 1-7; SMILES N=C(N)NCCC[C@@H]1NC(=O)[C@@H](Cc2ccccc2)NC(=O)[C@H](Cc2c[nH]cn2)NC(=O)[C@H](CCC(=O)O)NC(=O)[C@@H]2CSSC[C@H](NC(=O)[C@H](Cc3c[nH]c4ccccc34)NC1=O)C(=O)N[C@@H](CCC(=O)O)C(=O)N[C@@H](Cc1c[nH]cn1)C(=O)N[C@H](Cc1ccccc1)C(=O)N[C@@H](CCCNC(=N)N)C(=O)N[C@@H](Cc1c[nH]c3ccccc13)C(=O)N2, also called c[c[Cys-Glu-His-D-Phe-Arg-Trp-Cys]-Glu-His-D-Phe-Arg-Trp]) [Chem. 51] | 0.5 nM | 0.2 nM | 2.69 nM
cyclo(CKH[dF]HWCKH[dF]HW) (disulfide 1-7; SMILES NCCCC[C@@H]1NC(=O)[C@@H]2CSSC[C@H](NC(=O)[C@H](Cc3c[nH]c4ccccc34)NC(=O)[C@H](Cc3c[nH]cn3)NC(=O)[C@@H](Cc3ccccc3)NC(=O)[C@H](Cc3c[nH]cn3)NC1=O)C(=O)N[C@@H](CCCCN)C(=O)N[C@@H](Cc1c[nH]cn1)C(=O)N[C@H](Cc1ccccc1)C(=O)N[C@@H](Cc1c[nH]cn1)C(=O)N[C@@H](Cc1c[nH]c3ccccc13)C(=O)N2, also called c[c[Cys-Lys-His-D-Phe-His-Trp-Cys]-Lys-His-D-Phe-His-Trp]) [Chem. 52] | 0.76 nM | 0.23 nM | 47.7 nM
cyclo(CEH[dF]HWCEH[dF]HW) (disulfide 1-7; SMILES O=C(O)CC[C@@H]1NC(=O)[C@@H]2CSSC[C@H](NC(=O)[C@H](Cc3c[nH]c4ccccc34)NC(=O)[C@H](Cc3c[nH]cn3)NC(=O)[C@@H](Cc3ccccc3)NC(=O)[C@H](Cc3c[nH]cn3)NC1=O)C(=O)N[C@@H](CCC(=O)O)C(=O)N[C@@H](Cc1c[nH]cn1)C(=O)N[C@H](Cc1ccccc1)C(=O)N[C@@H](Cc1c[nH]cn1)C(=O)N[C@@H](Cc1c[nH]c3ccccc13)C(=O)N2, also called c[c[Cys-Glu-His-D-Phe-His-Trp-Cys]-Glu-His-D-Phe-His-Trp]) [Chem. 53] | 9.47 nM | 11 nM | > 10 nM
cyclo(CRH[dF][Cit]WCRH[dF][Cit]W) (disulfide 1-7; SMILES N=C(N)NCCC[C@@H]1NC(=O)[C@@H]2CSSC[C@H](NC(=O)[C@H](Cc3c[nH]c4ccccc34)NC(=O)[C@H](CCCNC(N)=O)NC(=O)[C@@H](Cc3ccccc3)NC(=O)[C@H](Cc3c[nH]cn3)NC1=O)C(=O)N[C@@H](CCCNC(=N)N)C(=O)N[C@@H](Cc1c[nH]cn1)C(=O)N[C@H](Cc1ccccc1)C(=O)N[C@@H](CCCNC(N)=O)C(=O)N[C@@H](Cc1c[nH]c3ccccc13)C(=O)N2, also called c[c[Cys-Arg-His-D-Phe-Cit-Trp-Cys]-Arg-His-D-Phe-Cit-Trp]) [Chem. 54] | 0.21 nM | 0.04 nM | 0.29 nM
cyclo(CKH[dF][Cit]WCKH[dF][Cit]W) (disulfide 1-7; SMILES NCCCC[C@@H]1NC(=O)[C@@H]2CSSC[C@H](NC(=O)[C@H](Cc3c[nH]c4ccccc34)NC(=O)[C@H](CCCNC(N)=O)NC(=O)[C@@H](Cc3ccccc3)NC(=O)[C@H](Cc3c[nH]cn3)NC1=O)C(=O)N[C@@H](CCCCN)C(=O)N[C@@H](Cc1c[nH]cn1)C(=O)N[C@H](Cc1ccccc1)C(=O)N[C@@H](CCCNC(N)=O)C(=O)N[C@@H](Cc1c[nH]c3ccccc13)C(=O)N2, also called c[c[Cys-Lys-His-D-Phe-Cit-Trp-Cys]-Lys-His-D-Phe-Cit-Trp]) [Chem. 55] | 0.33 nM | 0.1 nM | 4.14 nM
cyclo(CPH[dF]HWCAKKKW) (disulfide 1-7, also called c[c[Cys-Pro-His-D-Phe-His-Trp-Cys]-Ala-Lys-Lys-Lys-Trp]) [Chem. 62] | 0.13 nM | 0.17 nM | > 1 nM
cyclo(CAH[dF]QWCAK[dK]KW) (disulfide 1-7; SMILES C[C@@H]1NC(=O)[C@@H]2CSSC[C@H](NC(=O)[C@H](Cc3c[nH]c4ccccc34)NC(=O)[C@H](CCC(N)=O)NC(=O)[C@@H](Cc3ccccc3)NC(=O)[C@H](Cc3c[nH]cn3)NC1=O)C(=O)N[C@@H](C)C(=O)N[C@@H](CCCCN)C(=O)N[C@H](CCCCN)C(=O)N[C@@H](CCCCN)C(=O)N[C@@H](Cc1c[nH]c3ccccc13)C(=O)N2, also called c[c[Cys-Ala-His-D-Phe-Gln-Trp-Cys]-Ala-Lys-D-Lys-Lys-Trp]) [Chem. 57] | 0.21 nM | 0.19 nM | 10.4 nM
cyclo(CAH[dF]HWCAKKKW) (disulfide 1-7; SMILES C[C@@H]1NC(=O)[C@@H]2CSSC[C@H](NC(=O)[C@H](Cc3c[nH]c4ccccc34)NC(=O)[C@H](Cc3c[nH]cn3)NC(=O)[C@@H](Cc3ccccc3)NC(=O)[C@H](Cc3c[nH]cn3)NC1=O)C(=O)N[C@@H](C)C(=O)N[C@@H](CCCCN)C(=O)N[C@@H](CCCCN)C(=O)N[C@@H](CCCCN)C(=O)N[C@@H](Cc1c[nH]c3ccccc13)C(=O)N2, also called c[c[Cys-Ala-His-D-Phe-His-Trp-Cys]-Ala-Lys-Lys-Lys-Trp]) [Chem. 60] | 0.1 nM | 0.17 nM | 53.3 nM
cyclo(CPH[dF]HWCAKKKR) (disulfide 1-7; SMILES C[C@@H]1NC(=O)[C@@H]2CSSC[C@H](NC(=O)[C@H](CCCNC(=N)N)NC(=O)[C@H](CCCCN)NC(=O)[C@H](CCCCN)NC(=O)[C@H](CCCCN)NC1=O)C(=O)N1CCC[C@H]1C(=O)N[C@@H](Cc1c[nH]cn1)C(=O)N[C@H](Cc1ccccc1)C(=O)N[C@@H](Cc1c[nH]cn1)C(=O)N[C@@H](Cc1c[nH]c3ccccc13)C(=O)N2, also called c[c[Cys-Pro-His-D-Phe-His-Trp-Cys]-Ala-Lys-Lys-Lys-Arg]) [Chem. 71] | 0.05 nM | 0.08 nM | 33.2 nM
cyclo(CPH[dF]HWCKKKKW) (disulfide 1-7, also called c[c[Cys-Pro-His-D-Phe-His-Trp-Cys]-Lys-Lys-Lys-Lys-Trp]) [Chem. 75] | 0.11 nM | 0.44 nM | 68 nM
cyclo(CKH[dF]HWCAKKKW) (disulfide 1-7; SMILES C[C@@H]1NC(=O)[C@@H]2CSSC[C@H](NC(=O)[C@H](Cc3c[nH]c4ccccc34)NC(=O)[C@H](CCCCN)NC(=O)[C@H](CCCCN)NC(=O)[C@H](CCCCN)NC1=O)C(=O)N[C@@H](CCCCN)C(=O)N[C@@H](Cc1c[nH]cn1)C(=O)N[C@H](Cc1ccccc1)C(=O)N[C@@H](Cc1c[nH]cn1)C(=O)N[C@@H](Cc1c[nH]c3ccccc13)C(=O)N2, also called c[c[Cys-Lys-His-D-Phe-His-Trp-Cys]-Ala-Lys-Lys-Lys-Trp]) [Chem. 76] | 0.09 nM | 0.16 nM | 21.8 nM
